Measured values from US20260297187 (published 2026).

What was measured:
Assay in all cases: BLI
CEACAM6 = target: T1, CEACAM6 (human, UniProt P40199)
T1 chain: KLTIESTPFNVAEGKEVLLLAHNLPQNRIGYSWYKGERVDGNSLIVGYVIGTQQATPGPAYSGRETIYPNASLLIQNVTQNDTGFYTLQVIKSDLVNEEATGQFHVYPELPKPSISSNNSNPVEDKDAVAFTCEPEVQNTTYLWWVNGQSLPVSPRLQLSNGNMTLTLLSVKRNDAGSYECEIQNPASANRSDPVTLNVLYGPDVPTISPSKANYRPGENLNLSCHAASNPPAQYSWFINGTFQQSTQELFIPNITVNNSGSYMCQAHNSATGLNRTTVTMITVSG

CEACAM5 = target: T2, CEACAM5 (human, UniProt P06731)
T2 chain: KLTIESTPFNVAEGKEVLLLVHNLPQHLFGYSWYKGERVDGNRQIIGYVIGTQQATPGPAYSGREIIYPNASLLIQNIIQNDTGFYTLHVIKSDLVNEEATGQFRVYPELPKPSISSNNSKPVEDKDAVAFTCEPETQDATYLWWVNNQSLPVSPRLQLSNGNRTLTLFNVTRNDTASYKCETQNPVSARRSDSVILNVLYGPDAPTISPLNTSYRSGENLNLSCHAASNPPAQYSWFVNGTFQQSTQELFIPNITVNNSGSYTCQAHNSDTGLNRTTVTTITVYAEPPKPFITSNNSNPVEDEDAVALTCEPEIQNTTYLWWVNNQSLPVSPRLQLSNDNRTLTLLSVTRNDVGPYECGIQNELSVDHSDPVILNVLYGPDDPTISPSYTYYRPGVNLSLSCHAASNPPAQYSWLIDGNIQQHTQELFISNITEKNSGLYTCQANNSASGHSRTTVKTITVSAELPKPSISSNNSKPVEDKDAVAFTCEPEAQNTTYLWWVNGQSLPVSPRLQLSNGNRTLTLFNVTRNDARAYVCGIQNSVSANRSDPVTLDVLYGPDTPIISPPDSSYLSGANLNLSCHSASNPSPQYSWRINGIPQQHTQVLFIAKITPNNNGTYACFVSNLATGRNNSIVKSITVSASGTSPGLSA

CEACAM3 = target: T3, CEACAM3 (human, UniProt P40198)
T3 chain: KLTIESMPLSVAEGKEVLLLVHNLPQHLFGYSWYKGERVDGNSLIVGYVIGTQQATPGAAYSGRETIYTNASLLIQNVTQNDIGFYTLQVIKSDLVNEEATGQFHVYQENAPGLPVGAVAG

Measured: binding result

B1: 4D10 (antibody, V domains shown)
VH: EVQLQQSGPELVKPGASVKMSCKASGYTFSSYVIHWVRQKPGQGLEWIGYFNPYNNGTNYNENFKGKATLTSGKSSSTAYMELSSLTSEDSAVYYCARYYYASGSLYFDYWGQGTTLTVSS
VL: EIVLTQSPAIATASLGQKVTITCSASSSVSYMHWYQQKSGTSPKPWIYEISKLASGVPTRFSGSGSGTSYSLTISSMEAEDAAIYYCQQWNYPLITFGAGTKLELK
no binding: all assays above
